# In IntAct's records for PubMed 22334672:
# B1: mRNA export factor (Human herpesvirus 1 (strain 17) (HHV-1)), P10238 (parent)
# chain: MATDIDMLIDLGLDLSDSDLDEDPPEPAESRRDDLESDSSGECSSSDEDMEDPHGEDGPEPILDAARPAVRPSRPEDPGVPSTQTPRPTERQGPNDPQPAPHSVWSRLGARRPSCSPEQHGGKVARLQPPPTKAQPARGGRRGRRRGRGRGGPGAADGLSDPRRRAPRTNRNPGGPRPGAGWTDGPGAPHGEAWRGSEQPDPPGGQRTRGVRQAPPPLMTLAIAPPPADPRAPAPERKAPAADTIDATTRLVLRSISERAAVDRISESFGRSAQVMHDPFGGQPFPAANSPWAPVLAGQGGPFDAETRRVSWETLVAHGPSLYRTFAGNPRAASTAKAMRDCVLRQENFIEALASADETLAWCKMCIHHNLPLRPQDPIIGTTAAVLDNLATRLRPFLQCYLKARGLCGLDELCSRRRLADIKDIASFVFVILARLANRVERGVAEIDYATLGVGVGEKMHFYLPGACMAGLIEILDTHRQECSSRVCELTASHIVAPPYVHGKYFYCNSLF
# partner: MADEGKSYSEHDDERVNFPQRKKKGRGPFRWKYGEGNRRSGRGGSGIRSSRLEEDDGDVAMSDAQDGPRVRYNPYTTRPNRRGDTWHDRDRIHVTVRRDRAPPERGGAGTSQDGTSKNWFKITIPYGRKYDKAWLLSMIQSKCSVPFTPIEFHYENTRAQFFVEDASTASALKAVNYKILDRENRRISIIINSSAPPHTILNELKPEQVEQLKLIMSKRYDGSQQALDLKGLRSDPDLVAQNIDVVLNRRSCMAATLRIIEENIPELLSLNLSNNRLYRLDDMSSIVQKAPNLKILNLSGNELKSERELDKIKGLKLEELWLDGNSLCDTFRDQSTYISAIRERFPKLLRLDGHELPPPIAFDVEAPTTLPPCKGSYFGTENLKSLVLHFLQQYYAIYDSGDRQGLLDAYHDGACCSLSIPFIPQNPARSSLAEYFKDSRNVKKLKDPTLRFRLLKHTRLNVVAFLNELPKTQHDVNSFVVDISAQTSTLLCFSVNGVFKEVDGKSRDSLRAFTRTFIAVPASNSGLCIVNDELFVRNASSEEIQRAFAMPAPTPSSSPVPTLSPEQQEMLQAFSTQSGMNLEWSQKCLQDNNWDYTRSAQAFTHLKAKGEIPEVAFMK
# Variants of: B1
# Settings: with nxf1_human NXF1, Q9UBU9
row,Variant,effect of a mutation on the interaction
1,P465L;G466E,disrupting interaction
